Data published in paper PMC9482650, “Quantitative fragmentomics allow affinity mapping of interactomes” (Nature Communications, 2022).

T1: FRMPD1, Q5SYB0
T1 sequence (Q5SYB0 52-145, limits assumed, looked up): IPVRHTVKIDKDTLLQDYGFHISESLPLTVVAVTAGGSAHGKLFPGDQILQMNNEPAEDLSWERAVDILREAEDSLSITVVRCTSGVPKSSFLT

T2: MPDZ_5, O75970
T2 sequence (O75970 695-796, limits assumed, looked up): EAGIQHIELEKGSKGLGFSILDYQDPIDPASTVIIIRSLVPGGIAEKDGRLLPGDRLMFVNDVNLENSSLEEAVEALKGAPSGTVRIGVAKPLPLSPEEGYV

T3: GRIP1_2, Q9Y3R0
T3 sequence (Q9Y3R0 145-248, limits assumed, looked up): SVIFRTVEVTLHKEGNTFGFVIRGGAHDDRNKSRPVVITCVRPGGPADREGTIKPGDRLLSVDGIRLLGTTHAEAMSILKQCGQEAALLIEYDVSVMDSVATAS

T4: MPDZ_12, O75970
T4 sequence (O75970 1857-1958, limits assumed, looked up): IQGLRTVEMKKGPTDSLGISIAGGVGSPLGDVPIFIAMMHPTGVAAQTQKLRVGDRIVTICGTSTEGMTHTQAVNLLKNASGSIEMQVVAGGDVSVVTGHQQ

T5: DFNB31_3, Q9P202
T5 sequence (Q9P202 811-907, limits assumed, looked up): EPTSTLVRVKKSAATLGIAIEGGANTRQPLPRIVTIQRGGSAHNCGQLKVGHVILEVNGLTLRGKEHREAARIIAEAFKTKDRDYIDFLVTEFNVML

T6: PDZD2_2, O15018
T6 sequence (O15018 329-429, limits assumed, looked up): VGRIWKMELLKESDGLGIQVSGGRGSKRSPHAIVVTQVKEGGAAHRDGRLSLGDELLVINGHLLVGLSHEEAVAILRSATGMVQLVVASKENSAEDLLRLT

T7: APBA2_1, Q99767
T7 sequence (Q99767 563-664, limits assumed, looked up): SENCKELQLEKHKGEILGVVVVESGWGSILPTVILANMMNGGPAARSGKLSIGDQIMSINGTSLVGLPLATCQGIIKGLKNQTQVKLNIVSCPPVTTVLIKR

T8: PTPN13_1, Q12923
T8 sequence (Q12923 1088-1188, limits assumed, looked up): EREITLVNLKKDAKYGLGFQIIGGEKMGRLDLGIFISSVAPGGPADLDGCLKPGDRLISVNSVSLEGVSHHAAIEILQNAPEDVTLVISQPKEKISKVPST

T9: RAPGEF6, Q8TEU7
T9 sequence (Q8TEU7 525-625, limits assumed, looked up): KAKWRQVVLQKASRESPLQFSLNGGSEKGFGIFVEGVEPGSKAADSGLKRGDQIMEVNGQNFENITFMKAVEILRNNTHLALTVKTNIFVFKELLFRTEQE

T10: DLG3_3, Q92796
T10 sequence (Q92796 374-475, limits assumed, looked up): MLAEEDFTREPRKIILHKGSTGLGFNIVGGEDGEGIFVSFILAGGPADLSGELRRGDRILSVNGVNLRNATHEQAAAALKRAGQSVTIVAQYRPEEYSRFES

T11: RHPN1, Q8TCX5
T11 sequence (Q8TCX5 508-602, limits assumed, looked up): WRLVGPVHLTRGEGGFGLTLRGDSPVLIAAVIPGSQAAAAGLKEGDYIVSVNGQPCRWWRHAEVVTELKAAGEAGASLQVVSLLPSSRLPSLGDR

T12: LNX2_3, Q8N448
T12 sequence (Q8N448 463-564, limits assumed, looked up): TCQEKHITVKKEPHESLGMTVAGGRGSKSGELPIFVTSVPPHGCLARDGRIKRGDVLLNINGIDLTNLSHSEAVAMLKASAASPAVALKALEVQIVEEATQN


target: MAGI2_2, Q86UL8; assay: holdup assay; parameters: key: below the threshold = too weak to quantify, mostly under pKd 3.1 to 4; details: plain residues with an end cap or a label only (N-terminal biotin on a linker: ado-ado)
Sequence (Q86UL8 410-522): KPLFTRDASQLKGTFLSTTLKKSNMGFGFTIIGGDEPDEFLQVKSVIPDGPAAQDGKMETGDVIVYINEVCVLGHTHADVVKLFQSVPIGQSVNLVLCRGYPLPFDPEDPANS

pKd	Binder
below the threshold	DDEDRLVIEI [ZNF831, Q5JPB2]

target: T1, FRMPD1, Q5SYB0; assay: holdup assay; parameters: key: below the threshold = too weak to quantify, mostly under pKd 3.1 to 4; details: plain residues with an end cap or a label only (N-terminal biotin on a linker: ado-ado)

pKd	Binder
below the threshold	DDEDRLVIEI [ZNF831, Q5JPB2]

target: FRMPD2_3, Q68DX3; assay: holdup assay; parameters: key: below the threshold = too weak to quantify, mostly under pKd 3.1 to 4; details: plain residues with an end cap or a label only (N-terminal biotin on a linker: ado-ado)
Sequence (Q68DX3 1073-1166): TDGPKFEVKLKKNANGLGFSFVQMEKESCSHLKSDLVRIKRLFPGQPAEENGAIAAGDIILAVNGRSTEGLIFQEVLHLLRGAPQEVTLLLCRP

pKd	Binder
below the threshold	DDEDRLVIEI [ZNF831, Q5JPB2]

target: T2, MPDZ_5, O75970; assay: holdup assay; parameters: key: below the threshold = too weak to quantify, mostly under pKd 3.1 to 4; details: plain residues with an end cap or a label only (N-terminal biotin on a linker: ado-ado)

pKd	Binder
below the threshold	DDEDRLVIEI [ZNF831, Q5JPB2]

target: T3, GRIP1_2, Q9Y3R0; assay: holdup assay; parameters: key: below the threshold = too weak to quantify, mostly under pKd 3.1 to 4; details: plain residues with an end cap or a label only (N-terminal biotin on a linker: ado-ado)

pKd	Binder
below the threshold	DDEDRLVIEI [ZNF831, Q5JPB2]

target: T4, MPDZ_12, O75970; assay: holdup assay; parameters: key: below the threshold = too weak to quantify, mostly under pKd 3.1 to 4; details: plain residues with an end cap or a label only (N-terminal biotin on a linker: ado-ado)

pKd	Binder
below the threshold	DDEDRLVIEI [ZNF831, Q5JPB2]

target: LNX1_2, Q8TBB1; assay: holdup assay; parameters: key: below the threshold = too weak to quantify, mostly under pKd 3.1 to 4; details: plain residues with an end cap or a label only (N-terminal biotin on a linker: ado-ado)
Sequence (Q8TBB1 371-470): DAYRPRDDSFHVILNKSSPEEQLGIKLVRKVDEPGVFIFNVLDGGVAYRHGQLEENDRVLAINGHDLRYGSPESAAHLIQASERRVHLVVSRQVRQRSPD

pKd	Binder
below the threshold	DDEDRLVIEI [ZNF831, Q5JPB2]

target: AHNAK1, Q09666; assay: holdup assay; parameters: key: below the threshold = too weak to quantify, mostly under pKd 3.1 to 4; details: plain residues with an end cap or a label only (N-terminal biotin on a linker: ado-ado)
Sequence (Q09666 4-100): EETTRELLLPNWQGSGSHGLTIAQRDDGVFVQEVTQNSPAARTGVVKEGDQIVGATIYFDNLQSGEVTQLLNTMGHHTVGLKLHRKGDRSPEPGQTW

pKd	Binder
below the threshold	DDEDRLVIEI [ZNF831, Q5JPB2]

target: NOS1, P29475; assay: holdup assay; parameters: key: below the threshold = too weak to quantify, mostly under pKd 3.1 to 4; details: plain residues with an end cap or a label only (N-terminal biotin on a linker: ado-ado)
Sequence (P29475 9-101): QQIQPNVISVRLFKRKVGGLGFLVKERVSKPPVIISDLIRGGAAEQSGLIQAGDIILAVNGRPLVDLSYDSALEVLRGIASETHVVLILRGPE

pKd	Binder
3.64	DDEDRLVIEI [ZNF831, Q5JPB2]

target: HTRA2, O43464; assay: holdup assay; parameters: key: below the threshold = too weak to quantify, mostly under pKd 3.1 to 4; details: plain residues with an end cap or a label only (N-terminal biotin on a linker: ado-ado)
Sequence (O43464 355-458): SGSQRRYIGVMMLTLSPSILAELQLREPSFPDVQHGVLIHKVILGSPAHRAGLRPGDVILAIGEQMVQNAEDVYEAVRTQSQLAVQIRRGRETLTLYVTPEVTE

pKd	Binder
below the threshold	DDEDRLVIEI [ZNF831, Q5JPB2]

target: T5, DFNB31_3, Q9P202; assay: holdup assay; parameters: key: below the threshold = too weak to quantify, mostly under pKd 3.1 to 4; details: plain residues with an end cap or a label only (N-terminal biotin on a linker: ado-ado)

pKd	Binder
4.12	DDEDRLVIEI [ZNF831, Q5JPB2]

target: T6, PDZD2_2, O15018; assay: holdup assay; parameters: key: below the threshold = too weak to quantify, mostly under pKd 3.1 to 4; details: plain residues with an end cap or a label only (N-terminal biotin on a linker: ado-ado)

pKd	Binder
3.75	DDEDRLVIEI [ZNF831, Q5JPB2]

target: T7, APBA2_1, Q99767; assay: holdup assay; parameters: key: below the threshold = too weak to quantify, mostly under pKd 3.1 to 4; details: plain residues with an end cap or a label only (N-terminal biotin on a linker: ado-ado)

pKd	Binder
below the threshold	DDEDRLVIEI [ZNF831, Q5JPB2]

target: SNX27, Q96L92; assay: holdup assay; parameters: key: below the threshold = too weak to quantify, mostly under pKd 3.1 to 4; details: plain residues with an end cap or a label only (N-terminal biotin on a linker: ado-ado)

pKd	Binder
below the threshold	DDEDRLVIEI [ZNF831, Q5JPB2]

target: T8, PTPN13_1, Q12923; assay: holdup assay; parameters: key: below the threshold = too weak to quantify, mostly under pKd 3.1 to 4; details: plain residues with an end cap or a label only (N-terminal biotin on a linker: ado-ado)

pKd	Binder
below the threshold	DDEDRLVIEI [ZNF831, Q5JPB2]

target: NHERF4_1, Q86UT5-2; assay: holdup assay; parameters: key: below the threshold = too weak to quantify, mostly under pKd 3.1 to 4; details: plain residues with an end cap or a label only (N-terminal biotin on a linker: ado-ado)
Sequence (Q86UT5 other isoform, or with tags, fused parts or gaps): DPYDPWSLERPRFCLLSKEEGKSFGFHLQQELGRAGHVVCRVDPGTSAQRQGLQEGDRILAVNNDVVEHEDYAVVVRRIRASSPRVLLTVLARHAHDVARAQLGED

pKd	Binder
below the threshold	DDEDRLVIEI [ZNF831, Q5JPB2]

target: GRIP2_3, Q9C0E4; assay: holdup assay; parameters: key: below the threshold = too weak to quantify, mostly under pKd 3.1 to 4; details: plain residues with an end cap or a label only (N-terminal biotin on a linker: ado-ado)
Sequence (Q9C0E4 238-339): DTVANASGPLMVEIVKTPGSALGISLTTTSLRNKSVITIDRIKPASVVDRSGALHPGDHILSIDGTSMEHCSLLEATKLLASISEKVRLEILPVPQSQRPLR

pKd	Binder
below the threshold	DDEDRLVIEI [ZNF831, Q5JPB2]

target: Inadl_8, Q8NI35; assay: holdup assay; parameters: key: below the threshold = too weak to quantify, mostly under pKd 3.1 to 4; details: plain residues with an end cap or a label only (N-terminal biotin on a linker: ado-ado)
Sequence (Q8NI35 1425-1530): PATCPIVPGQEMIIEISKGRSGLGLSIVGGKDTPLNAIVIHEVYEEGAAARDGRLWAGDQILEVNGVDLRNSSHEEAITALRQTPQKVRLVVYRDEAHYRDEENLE

pKd	Binder
below the threshold	DDEDRLVIEI [ZNF831, Q5JPB2]

target: T9, RAPGEF6, Q8TEU7; assay: holdup assay; parameters: key: below the threshold = too weak to quantify, mostly under pKd 3.1 to 4; details: plain residues with an end cap or a label only (N-terminal biotin on a linker: ado-ado)

pKd	Binder
below the threshold	DDEDRLVIEI [ZNF831, Q5JPB2]

target: T10, DLG3_3, Q92796; assay: holdup assay; parameters: key: below the threshold = too weak to quantify, mostly under pKd 3.1 to 4; details: plain residues with an end cap or a label only (N-terminal biotin on a linker: ado-ado)

pKd	Binder
below the threshold	DDEDRLVIEI [ZNF831, Q5JPB2]

target: DLG2_2, Q15700; assay: holdup assay; parameters: key: below the threshold = too weak to quantify, mostly under pKd 3.1 to 4; details: plain residues with an end cap or a label only (N-terminal biotin on a linker: ado-ado)
Sequence (Q15700 189-283): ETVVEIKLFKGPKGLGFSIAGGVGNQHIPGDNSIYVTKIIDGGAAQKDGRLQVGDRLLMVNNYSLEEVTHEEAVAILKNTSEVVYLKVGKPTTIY

pKd	Binder
below the threshold	DDEDRLVIEI [ZNF831, Q5JPB2]

target: T11, RHPN1, Q8TCX5; assay: holdup assay; parameters: key: below the threshold = too weak to quantify, mostly under pKd 3.1 to 4; details: plain residues with an end cap or a label only (N-terminal biotin on a linker: ado-ado)

pKd	Binder
3.53	DDEDRLVIEI [ZNF831, Q5JPB2]

target: T12, LNX2_3, Q8N448; assay: holdup assay; parameters: key: below the threshold = too weak to quantify, mostly under pKd 3.1 to 4; details: plain residues with an end cap or a label only (N-terminal biotin on a linker: ado-ado)

pKd	Binder
below the threshold	DDEDRLVIEI [ZNF831, Q5JPB2]

target: GRIP2_7, Q9C0E4; assay: holdup assay; parameters: key: below the threshold = too weak to quantify, mostly under pKd 3.1 to 4; details: plain residues with an end cap or a label only (N-terminal biotin on a linker: ado-ado)
Sequence (Q9C0E4 934-1023): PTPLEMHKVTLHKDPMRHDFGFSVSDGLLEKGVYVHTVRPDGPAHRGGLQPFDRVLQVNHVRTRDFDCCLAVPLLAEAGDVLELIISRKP

pKd	Binder
below the threshold	DDEDRLVIEI [ZNF831, Q5JPB2]
